Results as given in publication PMC7954791, “MAGIs regulate aPKC to enable balanced distribution of intercellular tension for epithelial sheet homeostasis” (Communications Biology, 2021).

Target: T1, ankyrin-repeat-, SH3-domain- and proline-rich-region-containing protein 2 (ASPP2), FLAG-tagged (UniProt Q8CG79 1-1128)
T1 construct: ASPP2, FLAG-tagged, co-expressed with HA-MAGI-3 in a heterologous expression system; HEK293 is probably the host; also called FLAG-ASPP2; source: heterologous expression system, in lysate
T1 sequence (looked up): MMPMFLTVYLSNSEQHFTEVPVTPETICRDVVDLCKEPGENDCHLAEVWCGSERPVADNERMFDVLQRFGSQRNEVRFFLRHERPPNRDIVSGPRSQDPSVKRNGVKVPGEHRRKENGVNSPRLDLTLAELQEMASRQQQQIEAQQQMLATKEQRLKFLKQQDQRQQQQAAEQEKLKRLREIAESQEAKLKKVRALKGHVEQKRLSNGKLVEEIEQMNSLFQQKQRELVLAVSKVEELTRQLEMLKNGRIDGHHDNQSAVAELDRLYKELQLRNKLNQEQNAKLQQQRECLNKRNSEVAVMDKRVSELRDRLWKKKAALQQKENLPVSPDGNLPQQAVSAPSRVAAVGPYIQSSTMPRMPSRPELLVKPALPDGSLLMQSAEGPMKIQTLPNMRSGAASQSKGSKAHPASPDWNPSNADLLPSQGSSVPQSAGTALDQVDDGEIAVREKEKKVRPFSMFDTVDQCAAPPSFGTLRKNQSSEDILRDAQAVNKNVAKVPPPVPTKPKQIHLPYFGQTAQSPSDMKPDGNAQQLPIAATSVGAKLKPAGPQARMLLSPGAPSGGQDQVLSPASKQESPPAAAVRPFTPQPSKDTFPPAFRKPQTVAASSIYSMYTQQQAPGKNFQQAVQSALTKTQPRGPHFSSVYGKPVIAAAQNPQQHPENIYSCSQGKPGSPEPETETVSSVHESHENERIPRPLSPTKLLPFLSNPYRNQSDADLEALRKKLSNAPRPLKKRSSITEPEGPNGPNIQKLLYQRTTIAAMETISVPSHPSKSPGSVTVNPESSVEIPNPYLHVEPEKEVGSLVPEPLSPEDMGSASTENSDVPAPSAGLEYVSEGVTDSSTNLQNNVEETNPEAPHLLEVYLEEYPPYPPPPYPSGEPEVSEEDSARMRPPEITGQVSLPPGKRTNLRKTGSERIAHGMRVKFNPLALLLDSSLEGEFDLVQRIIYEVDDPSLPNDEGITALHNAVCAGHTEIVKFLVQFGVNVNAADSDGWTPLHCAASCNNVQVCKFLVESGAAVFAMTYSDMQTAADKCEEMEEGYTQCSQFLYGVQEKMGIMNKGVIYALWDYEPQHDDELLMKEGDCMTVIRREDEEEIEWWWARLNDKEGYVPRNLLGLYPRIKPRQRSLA
Assay: co-IP; FLAG immunoprecipitation in a heterologous expression system; FLAG-ASPP2 and HA-MAGI-3 co-expressed with GFP-RASSF10; 20 mM Tris-HCl pH 7.5, 150 mM NaCl, 1% Triton X-100; blot quantified, normalised to GFP control
Conditions: partners not purified

B1: MAGI-3 (natural protein, UniProt Q9EQJ9 1-1476, looked up)
chain: MSKTLKKKKHWLSKVQECAVSWAGPPGDLGAEIRGGAERGEFPYLGRLRDEAGGGGGTCCVVSGKAPSPGDVLLEVNGTPVSGLTNRDTLAVIRHFREPIRLKTVKPGKVINKDLRHYLSLQFQKGSIDHKLQQVIRDNLYLRTIPCTTRAPRDGEVPGVDYNFISVEQFKALEESGALLESGTYDGNFYGTPKPPAEPSPFQPDPVDQVLFDNEFDTESQRKRTTSVSKMERMDSSLPEEEEDEDKEAVNGSGSMETREMHSETSDCWMKTVPSYNQTNSSMDFRNYMMRDENLEPLPKNWEMAYTDTGMIYFIDHNTKTTTWLDPRLCKKAKAPEDCEDGELPYGWEKIEDPQYGTYYVDHLNQKTQFENPVEEAKRKKQLGQAEIHSAKTDVERAHFTRDPSQLKGVLVRASLKKSTMGFGFTIIGGDRPDEFLQVKNVLKDGPAAQDGKIAPGDVIVDINGNCVLGHTHADVVQMFQLVPVNQYVNLTLCRGYPLPDDSEDPVVDIVAATPVINGQSLTKGETCMNTQDFKLGAMVLDQNGKSGQILASDRLNGPSESSEQRASLASSGSSQPELVTIPLIKGPKGFGFAIADSPTGQKVKMILDSQWCQGLQKGDIIKEIYHQNVQNLTHLQVVEVLKQFPVGADVPLLILRGGPCSPTKTAKTKTDTKENSGSLETINEPIPQPMPFPPSIIRSGSPKLDPSEVYLKSKTLYEDKPPNTKDLDVFLRKQESGFGFRVLGGDGPDQSIYIGAIIPLGAAEKDGRLRAADELMCIDGIPVKGKSHKQVLDLMTTAARNGHVLLTVRRKIFYGEKQPEDESHQAFSQNGSPRLNRAELPTRSAPQEAYDVTLQRKENEGFGFVILTSKSKPPPGVIPHKIGRVIDGSPADRCGGLKVGDHISAVNGQSIVDLSHDNIVQLIKDAGVTVTLTVVAEEEHHGPPSGTNSARQSPALQHRPMGQAQANHIPGDRIALEGEIGRDVCSSYRHSWSDHKHLAQPDTAVISVVGSRHNQSLGCYPVELERGPRGFGFSLRGGKEYNMGLFILRLAEDGPAIKDGRIHVGDQIVEINGEPTQGITHTRAIELIQAGGNKVLLLLRPGTGLIPDHGDWDTNSPSSSNVIYDEQPPPLPSSHSASTFEESHVPATEDSLTRVQICEKAEELKDTVQEKKSTLNGSQPEMKYQSVHKTMSKKDPPRGSGHGEKSRLKGENGVTRRGRSASPKKSVNRHSEEHLEKIPRPLKSDPKEKSRDRSLSPRKGESKGRLTIKAGSGQDPYRKDRGRSSSPKKQQKIGGNSLSNTEGKLSEAGSRRAAGHPRDSTEQLPDGREKSGVSRKDLKQSQPGKTRTKSPEKKSSKVDETSLPSKKTSSTAGRVVSEKEKGKKPTAGETSRETVEHTQISAKQLKQEAQEKTALGNADDHKGRESEVTDRCRERAGCTPQSSSLVKKAPITPGPWRVPRANKVTGTTGMADKQL
notes: MAGI-3, expressed in a heterologous expression system for FLAG immunoprecipitation; HEK293 is probably the host; also called HA-MAGI-3; MAGI proteins; source: heterologous expression system, in lysate
fold co-precipitation with GFP-RASSF10 co-expressed, over GFP alone: ~4 fold
